Results as given in patent publication US20250263459A1, “STABILIZED PACAP PEPTIDE” (SENJU PHARMACEUTICAL CO., LTD., priority 2019, published 2025).
Non-standard residues stand in square brackets, D forms with d. Residues, ends and D or L forms follow the SMILES beside them. No end group written: not given here. Ala(1H-tetrazol-5-yl) = N[C@@H](Cc1nnn[nH]1)C(=O)O; Tz = tetrazole-substituted aspartic acid; Aib = CC(C)(N)C(=O)O

T1: PAC1 receptor (UniProt P41586 21-468, limits assumed)
T1 sequence (looked up): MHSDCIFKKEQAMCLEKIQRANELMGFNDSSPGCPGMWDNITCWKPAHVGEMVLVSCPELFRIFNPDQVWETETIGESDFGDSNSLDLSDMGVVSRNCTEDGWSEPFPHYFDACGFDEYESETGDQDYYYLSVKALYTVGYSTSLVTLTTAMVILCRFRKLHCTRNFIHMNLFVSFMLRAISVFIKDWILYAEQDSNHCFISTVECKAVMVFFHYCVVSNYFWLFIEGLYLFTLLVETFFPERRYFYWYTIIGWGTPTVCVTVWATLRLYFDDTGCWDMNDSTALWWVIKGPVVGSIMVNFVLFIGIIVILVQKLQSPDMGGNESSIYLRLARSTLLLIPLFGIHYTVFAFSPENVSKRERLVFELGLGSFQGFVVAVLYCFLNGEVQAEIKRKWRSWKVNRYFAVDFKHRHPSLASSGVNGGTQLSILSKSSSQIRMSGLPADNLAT

T2: VPAC1 receptor (UniProt P32241 31-457, limits assumed)
T2 sequence (looked up): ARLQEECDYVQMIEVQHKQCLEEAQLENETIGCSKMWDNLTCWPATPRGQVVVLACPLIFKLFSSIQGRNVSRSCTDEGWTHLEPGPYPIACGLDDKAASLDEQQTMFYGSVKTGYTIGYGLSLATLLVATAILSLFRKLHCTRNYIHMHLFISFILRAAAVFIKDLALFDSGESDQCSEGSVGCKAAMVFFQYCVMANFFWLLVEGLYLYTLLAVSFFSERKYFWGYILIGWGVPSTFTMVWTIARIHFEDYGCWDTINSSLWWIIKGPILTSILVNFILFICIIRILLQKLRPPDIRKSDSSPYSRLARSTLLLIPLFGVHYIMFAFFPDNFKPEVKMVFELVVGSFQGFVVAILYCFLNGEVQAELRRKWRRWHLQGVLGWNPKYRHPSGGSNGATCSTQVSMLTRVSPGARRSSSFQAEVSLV


How the values were obtained:
[1] = Stability test 1, sample preparation 5: survival rate of peptide in Tris buffer (pH 7.0) after storage, HPLC; format: physicochemical; settings: 100 μM peptide
Procedure: The peak area value for the peptide in the chromatogram was calculated, and the survival rate (survival rate before correction for water) was calculated using formula (2). The survival rate after correction for water was also calculated from the survival rate before correction for water using formula (3) to take into account the permeability of the container.
The prepared peptide solutions were incubated for 4 weeks or 8 weeks in a 40° C. thermostatic bath, and for one week or 2 weeks in a thermostatic bath at 60° C., to obtain stored samples.
The following gradient time was used only for peptide 30.

PAC1 receptor = target: T1, PAC1 receptor; assay: cell-based or functional assay
VPAC1 receptor = target: T2, VPAC1 receptor; assay: cell-based or functional assay

Row | Molecule | EC50, cAMP assay (Hit Hunter cAMP, chemiluminescence RLU) (PAC1 receptor) [nM] | EC50, cAMP assay (Hit Hunter cAMP, chemiluminescence RLU) (VPAC1 receptor) [nM] | other results
1 | CC[C@H](C)[C@H](NC(=O)CNC(=O)[C@H](Cc1nnn[nH]1)NC(=O)[C@H](C)NC(=O)[C@H](Cc1c[nH]cn1)NC(C)=O)C(=O)N[C@@H](Cc1ccccc1)C(=O)N[C@H](C(=O)N[C@@H](Cc1nnn[nH]1)C(=O)N[C@@H](CO)C(=O)N[C@@H](Cc1ccc(O)cc1)C(=O)N[C@@H](CO)C(=O)N[C@@H](CCCNC(=N)N)C(=O)N[C@@H](Cc1ccc(O)cc1)C(=O)N[C@@H](CCCNC(=N)N)C(=O)N[C@@H](CCCCN)C(=O)N[C@@H](C)C(=O)N[C@@H](CC(C)C)C(=O)N[C@@H](C)C(=O)N[C@H](C(=O)N[C@@H](CCCCN)C(=O)N[C@@H](CCCCN)C(=O)N[C@@H](Cc1ccc(O)cc1)C(=O)N[C@@H](CC(C)C)C(=O)N[C@@H](C)C(=O)N[C@@H](C)C(=O)N[C@H](C(=O)N[C@@H](CC(C)C)C(N)=O)C(C)C)C(C)C)[C@@H](C)O [Peptide 26, HATzGI FITzSY SRYRK ALAVK KYLAA VL] (Ac-HA[Ala(1H-tetrazol-5-yl)]GIFT[Ala(1H-tetrazol-5-yl)]SYSRYRKALAVKKYLAAVL-NH2) |  |  | survival rate after correction for water, 40° C. 4 week ([1]; Tris buffer pH 7.0, 40° C., 4 weeks (Table 13)): 93.2%; survival rate after correction for water, 40° C. 8 week ([1]; Tris buffer pH 7.0, 40° C., 8 weeks (Table 13)): 89.7%; survival rate after correction for water, 60° C. 1 week ([1]; Tris buffer pH 7.0, 60° C., 1 week (Table 13)): 97.9%; survival rate after correction for water, 60° C. 2 week ([1]; Tris buffer pH 7.0, 60° C., 2 weeks (Table 13)): 94.4%
2 | HSXGAFTXSYSRYRKQLAVKKYLAAVL (N-terminal Ac; tetrazole-substituted aspartic acid (Tz) at positions 3 and 8; C-terminal amide (NH2)) [Peptide 23] | 1.15 | 0.047 | 
3 | HSXGIFAXSYSRYRKQLAVKKYLAAVL (N-terminal Ac; tetrazole-substituted aspartic acid (Tz) at positions 3 and 8; C-terminal amide (NH2)) [Peptide 24] | 1.26 | 0.042 | 
4 | HS[Tz]GIFT[Tz][Aib]Y[Aib]RYRKQMAVKKYLAAVL-NH2 (also: Tz racemic) [Peptide 7] | 0.319 | 0.096 | 
5 | Ac-HA[Tz]GIFA[Tz]AYSRYRKAAAVKKYLAAVL-NH2 [Peptide 30] | 2.29 | 0.113 | 
6 | HS[Tz]GIFA[Tz][Aib]YSRYRKQMAVKKYLAAVL-NH2 (also: Tz racemic) [Peptide 4] | 2.36 | 0.121 | 
7 | HSXGIFTXSYSRYRKQXAVKKYLAAVL (N-terminal (CH3)2CHCO; tetrazole-substituted aspartic acid (Tz) at positions 3 and 8; norleucine (Nl) at position 17; C-terminal amide (NH2)) [Peptide 19] | 0.256 | 0.069 | 
8 | HS[Tz]GIFA[Tz][Aib]Y[Aib]RYRKQMAVKKYLAAVL-NH2 (also: Tz racemic) [Peptide 6] | 1.17 | 0.11 | 
9 | HSXGIFTXSYSRYRKQXAVKKYLAAVL (D-form tetrazole-substituted aspartic acid (Tz(D)) at positions 3 and 8; norleucine (Nl) at position 17; C-terminal amide (NH2)) [Peptide 13] | 0.738 | 0.082 | 
10 | HSXGIFTXSYSRYRKQXAVKKYLAAVL (tetrazole-substituted aspartic acid (Tz) at position 3; tetrazole-substituted glutamic acid (egTz) at position 8; norleucine (Nl) at position 17; C-terminal amide (NH2)) [Peptide 16] | 1.62 | 0.142 | 
11 | HS[Tz]GIFT[Tz]SYSRYRKQMAVKKYLA-NH2 (also: Tz racemic) [Peptide 8] | 0.679 | 0.045 | 
12 | HAXGIFAXSYSRYRKQLAVKKYLAAVL (N-terminal Ac; tetrazole-substituted aspartic acid (Tz) at positions 3 and 8; C-terminal amide (NH2)) [Peptide 25] | 0.693 | 0.041 | 
13 | HS[Ala(1H-tetrazol-5-yl)]GIFA[Ala(1H-tetrazol-5-yl)]AYSRYRKQMAVKKYLAAVL-NH2 (also: Tz racemic at 3 and 8) [Peptide 1] | 1.22 | 0.097 | 
14 | HSXGIFTXSYSRYRKQXAVKKYLAAVL (not fully specified; N-terminal CH3CH2CH2CH2CO; tetrazole-substituted aspartic acid (Tz) at positions 3 and 8; norleucine (Nl) at position 17; C-terminal amide (NH2)) [Peptide 20] | 0.574 | 0.131 | 
15 | HSXGIFAXAYSRYRKQLAVKKYLAAVL (N-terminal Ac; tetrazole-substituted aspartic acid (Tz) at positions 3 and 8; C-terminal amide (NH2)) [Peptide 27] | 2.53 | 0.111 | 
16 | HS[Tz]GIFA[Tz]SY[Aib]RYRKQMAVKKYLAAVL-NH2 (also: Tz racemic) [Peptide 5] | 0.695 | 0.078 | 
17 | HSXGIFTXSYSRYRKQXAVKKYLAAVL (sulfoxy-substituted aspartic acid (cya) at positions 3 and 8; norleucine (Nl) at position 17; C-terminal amide (NH2)) [Peptide 11] | 0.911 | 0.08 | 
18 | HSXGIFTXSYSRYRKQXAVKKYLAAVL (N-terminal (CH3)2CHCH2CO; tetrazole-substituted aspartic acid (Tz) at positions 3 and 8; norleucine (Nl) at position 17; C-terminal amide (NH2)) [Peptide 21] | 1.13 | 0.141 | 
19 | HSXGIFTXSYSRYRKQLAVKKYLAAVL (sulfoxy-substituted aspartic acid (cya) at positions 3 and 8; C-terminal amide (NH2)) [Peptide 10] | 0.447 | 0.057 | 
20 | HSXGIFTXSYSRYRKQXAVKKYLAAVL (N-terminal CH3CH2CO; tetrazole-substituted aspartic acid (Tz) at positions 3 and 8; norleucine (Nl) at position 17; C-terminal amide (NH2)) [Peptide 17] | 0.398 | 0.071 | 
21 | HSXGIFTXSYSRYRKQXAVKKYLAAVL (tetrazole-substituted aspartic acid (Tz) at position 3; D-form tetrazole-substituted aspartic acid (Tz(D)) at position 8; norleucine (Nl) at position 17; C-terminal amide (NH2)) [Peptide 14] | 0.857 | 0.107 | 
22 | HSXGIFTXSYSRYRKQMAVKKYLAAV (tetrazole-substituted aspartic acid (Tz, racemic) at positions 3 and 8; C-terminal amide (NH2)) [Peptide 9] | 0.287 | 0.079 | 
23 | MHSXGIFTXSYSRYRKQLAVKKYLAAVL (tetrazole-substituted aspartic acid (Tz) at positions 4 and 9 of this 28-residue peptide (positions 3 and 8 of PACAP27); C-terminal amide (NH2)) [Peptide 12] | 4.28 | 0.651 | 
24 | HSXGIFTXSYSRYRKQXAVKKYLAAVL (N-terminal CH3CH2CH2CO; tetrazole-substituted aspartic acid (Tz) at positions 3 and 8; norleucine (Nl) at position 17; C-terminal amide (NH2)) [Peptide 18] | 0.189 | 0.069 | 
25 | HSXGIFAXSYSRYRKQAAVKKYLAAVL (N-terminal Ac; tetrazole-substituted aspartic acid (Tz) at positions 3 and 8; C-terminal amide (NH2)) [Peptide 29] | 3.28 | 0.123 | 
26 | HSXGIFTXSYSRYRKQXAVKKYLAAVL (D-form tetrazole-substituted aspartic acid (Tz(D)) at position 3; tetrazole-substituted aspartic acid (Tz) at position 8; norleucine (Nl) at position 17; C-terminal amide (NH2)) [Peptide 15] | 0.079 | 0.243 | 
27 | HS[Tz]GIFA[Tz]SYARYRKQMAVKKYLAAVL-NH2 (also: Tz racemic) [Peptide 2] | 0.61 | 0.085 | 
28 | Ac-HA[Tz]GIFT[Tz]SYSRYRKALAVKKYLAAVL-NH2 [Peptide 26] | 0.209 | 0.068 | 
29 | HSXGIFTXSYSRYRKQXAVKKYLAAVL (N-terminal Ac (CH3CO); oxadiazolone-substituted aspartic acid (5Oxa) at positions 3 and 8; norleucine (Nl) at position 17; C-terminal amide (NH2)) [Peptide 22] | 0.376 | 0.077 | 
30 | HSXGIFAXSYSRYRKALAVKKYLAAVL (N-terminal Ac; tetrazole-substituted aspartic acid (Tz) at positions 3 and 8; C-terminal amide (NH2)) [Peptide 28] | 2.12 | 0.072 | 
